Measurements as given in PMC10653801.

B1: OS (O1 scrambled) (dsDNA)
DNA 1: TATCATTTAACAAACTCGATTTGTTATATATAATTAATTTTTGGTGTTCC
DNA 2: GGAACACCAAAAATTAATTATATATAACAAATCGAGTTTGTTAAATGATA
B2: OI (O1 downstream repeat inverted) (dsDNA)
DNA 1: TATCATTTTTACTGCTATAAAATGACTATATAATTAATTTTTGGTGTTCC
DNA 2: GGAACACCAAAAATTAATTATATAGTCATTTTATAGCAGTAAAAATGATA
B3: CO (random + O1) (dsDNA)
DNA 1: ACTGTGAGCCTAATATTTACTGCTATAACAGTAAAGGCTATCTGATTTTA
DNA 2: TAAAATCAGATAGCCTTTACTGTTATAGCAGTAAATATTAGGCTCACAGT

Biological target: HipB(Lp) (Legionella pneumophila Lp01JK, UniProt Q5ZSZ8 1-75)
Assay: EMSA; HipB 2.5 nM, DNA 10 nM
Conditions: protein: recombinant; tags: His6-SBP tag cleaved; chain copies: 2; blunt

| Binder | binding result |
| --- | --- |
| B1 | no binding |
| B2 | binds |
| B3 | binds |
